These results are taken from the DeepSol protein solubility set.

This series can be described thus: soluble on expression in E. coli; label from the status in PepcDB or PDB records.
For the sequence “GEGLGEEVIEEVYEELLSSFDTEYGGFSGAPKFPTPHKISFLLRYWRRSRNPEALHMAEYTLDKMRRGGIYDHLGSGFHRYSTDSMWLLPHFEKMLYDQALTAIAYTEAYQVTGKDLYKETAEGILDYVLRDLTSPEGGFYCGEDADVEREEGKYYLWTLEEIRSILDPEDSELIIKMFNLREEGNFEEEIRGRETGTNLFYMARSPGSLAAKMKIPVEEVEKKVKAAREKLLKARYERKRPSLDDKILTDWNGLMIAAFAKGYQVFGEQRYLKAAEKAADFILMALYSPGDGLLHRYRDGVAGISGTSDDYAFLIHGLLELYEAGFKMRYLKAAVSLNSELLECFWDPVNGGLYFTANDSEALIFRKKE”, the “soluble on expression in E. coli” value is listed as “not soluble”.

On to “MSLAPSPSSSTAPAALQQLGWQARLRWVHGICQGLPKVAQQLDEFLANQTGVVSTAREMQEWREAWVGFQQHKDAWVQACSQALQQAARKPPSQAGESSASGSAPLNFELLSDDVVENKILASRMALAMGETLQPGFEAMRLRMQALEGHELPSRDMFRAETICLHLVEQWLSCGMERKHLLRAVEPLQNALAPLMESEYGILHKLLDAKGVSKAQDAPLRVKRTEGGPPTGAMPLGGASGFGHAAEPGWSSSAMQQFMSAGMAAGIGTEPGIALPPGASAGLGMLARARHRALDAMNQLRQVLSQPAVGIPGLMPGAPLVPMPPASAALAQALQEQQQLMVAELRAQYPAATGSAMAMPAMDYSPAAIDQLVNQVRERSADWKQKAQTTGEKATIEVVALMFQSILSEDRLPPSIRVWFARLQVPVLRVALAEPQFFSDLNHPARKLIDRMGSCVMGFDASSINGNALETEIRRVVQVIEQYPETGQKVFALVLREFEAFLTKHFAQNRSTAKITSVAQQVEQKETLAIQYTIELRNMLTDMPVREEVRDFLFKSWADVLAMATVRYGAKDARAMRFKQAASELVWSASAKPSRQERARVIQGLPTLLQTLREGLELVSVTGDAQSTAIKVLTDTLAQAFMSKTAAIPAERIEAMAKRLSELEKYISEDGKLDDMPLSSESIELMLGVDAGDLNVIPNTDSPVEPAMLEWARSLESGRWFTLDHNGSRVQVQYVWHSRRRHLHLFASLDGHCYLLQAQRMATYLQAGLLAVHDAEALTVRATRDALQKIQANPEREGHHHHHH”, for which the “soluble on expression in E. coli” value is recorded as “soluble”.

As to “MGSDKIHHHHHHMHGELGKENELDGEIFRQGPVEIRDSRQKVIHSGFSPESQIIEGINAIIKLAHSEEESNLVGIMMSHFMFESIHPFYDGNGRTGRYLLGIQLSKILSPATALTMSSAINQFRNKYYKAFHAVEHRLNRGDGTPFVISMLELLIAAQEGLIENIKQRIDFLASLEDAIKTLRGTNSFKNHQINLLYILGQIQLFGKDETLSLESAAKFLKVSKATATRYFRTLREMELVHEVSKRPLRFALTDKGREIVGLEVKI”, the “soluble on expression in E. coli” value is on record as “not soluble”.

“MRSSNNRHEGEEAMNRTQQWMEDLQKNISDLIARSPAADVERNVRAMMTQTFARLDLITREEFEVQVDLLARARTRVDQLSAQVQQLEARLAALEAGKPQA”: the “soluble on expression in E. coli” value is on record as “not soluble”.

For “MAGKCVFIVGAKRTAFGTFGGKLKGLSATDLGVVASQAALKHANVGADAVDHVIFGNVVASSRDGIYLSRHIGLKSGVPQNVGALTVNRLCGSGFQAVVNAAQAIKLGESNIVLAGGTENMSMVPFAVRDIRFGTALGKKYEFEDMLWDSLSDPYAKLAMGQTAEKLGAQYKVTRQEADEFALRSQTLWKKAQEAGVYKNEIVGITIKGRKGEESFEIDEHPRATTAESLAKLKPVFQKDGLVNAGNASGISDGAAALVVAGEDSVKSKNLKPLARVVAYSAVGCDPTIMGIGPAPAIREVLKKSGLKIGDIDIFEVNEAFAPQALAVQRELGIPMEKLNVNGGAIALGHPLAASGARISTHIVHELHRRNVKYGIGSACIGGGQGIAILFEKIEMKVLSKKKFFSEKNQKSANTSTQSRVSDANSPPPPPPHFTRSFLGL”, the “soluble on expression in E. coli” value is “soluble”.

Turning to “SLDITLVFPHQLFADHPAIQAGRTVALIEDPLLFGTDPQWPLRMHHQRRLLHRASMTVYAEQLRGRGFNVIHQRHDAAPDTQGHLQLLHSAGYRHVHLVDLVDHWLERRLNAFAESVALRVSVLPTPMLLTPADVLEKHFGTGKKPLMAKFYEMQRTRLGVLMDAEGRPVGGRWSFDADNRKKLPKDISVPPIPVATPSTVVNTSRQQLAQENLPGVGKLDGFYYP”, the “soluble on expression in E. coli” value was “soluble”.

As to “MSTPHTPKPGPRPGAVPGPRPGAHAARKVVAPNVSAMNQARAFGRVDDDGTVYLIRGGETKKIGSWQAGTPEEGLQHYIHRFEDLATEVALLESRLKSHPNDASHIKEKAGEIRDGLDDAAIIGDLDSLEKRLNSIIDGADSAGEKARELKQQLQEKAIEQKQKLVAEAEEIAEKSTDWKVAGDRIREILDEWKTIKGIDRKTDDELWKLYSRARDSFNRRRGSHFAELDRGRAAARRIKEDLVEKANILKESTDWNDTAHAFKELMNEWKAAGRAPRDVDDKLWAAFKGAQDYFFNARNAVNDQRDREFAANAEAKDALIDEYTPLIDPAQGLESAREKLRELQEKWEAIGYVPRNRVREYEEKIANLEKRVTEAADAQWRRTDPAAQARAAQFISKVEEFTAQAAEAEVKGNTKKAEQLRAQAQQWQEWADAAINAVENR”, the “soluble on expression in E. coli” value is given as “not soluble”.

Regarding “MSAKEVDFERESHLHAVMCFLTGQSGEKIVSIYPHRKPATKAPSKDPQPSSSNPGQCVKPVLTSVKDPSYGFGRVDTEFDMSLGMLAYVFKTQEIACNDGFDMKINNQRFVAYPKTWKARGESTNYQISIVFALKNGCEQHTASAYQTLSNKIAVSLVMLQNYFGFLEREDKWADNAEEPNKDHPLEEFAKTSFIVQPLAEMFEEVRNRGNIHKYLINFVELGFCDEAHALTKLNVVPKGRQEIDEIVRKMKPYHGILLLEDVWPTPDANPIVAKLLSHCSPDRSILDMSTASGIPIFEVFMIIRHLLQWTRAILIYPLCNTNIYTSATSPQPLDKMAEKFTAQFGNTIHLAAGLAHFNPPKTLDTFIRKNLPLHEQGVRAKLVVALLRHQMLMQLHQFYYILKPYSIAILPEPKEPCPAEFTKIIEESTLPNDVKGVVADICAEMLETTSYASVKRTLSLFVKVAPMMDGNHHLEEIKYKNNLDRTEIEGVFVSFKLVIATFRRPDFVAE”, the “soluble on expression in E. coli” value is listed as “not soluble”.

Turning to “MGGVMSYFRGLFGAREMRILILGLDGAGKTTILYRLQVGEVVTTIPTIGFNVEQVEYKNLKFQVWDLGGQTSIRPYWRCYYANTDAIIYVVDSADRDRVGISRQELATMLQEDELQGAVLAVLANKQDIAGCLTETEVYKALGLDALRNRTIQIFKTSASKGEGLDPAMDWLANQLQQKK”, the “soluble on expression in E. coli” value was “not soluble”.

On to “MAHHHHHHMPRSEKQSEEDDWELHPLFLSKIPNKKDINKNQALSALITLINEEEEKEVFSYEPRRKNLKKKITEKGQIIYKKDRRNFYEPYQQNKNDKINYFEKKTLGGHSDVSKEEEVMDVEVDEEGTPLTAAQQGGDHSGQNVSSSQQATDETSIGEVLVCLSMINLK”, for which the “soluble on expression in E. coli” value is reported as “not soluble”.

Turning to “MGNYKFRISEMLPNAWFHKLKDVTKHSKPKNKASSSSSNTCSKKKPSSDSLPQHSYFSNSLVANNPPHHNSPRNSLHTKKMSKRKTLYKPSLKPLTPPPLLVSASFNKSKINDQDSSYSLFPAIETSPESFVYSFYEEDDDDEFVEFSNFKINTKNKAFTKQKVKVIDSVEKACTASKPIKKPQKSHLSVKISRDEDDNEYKAEKKYQRQVSSGRKPSAGINLKRVNSPRIQLSGTRRSTSRRSESKQDVLESFAVMKRSVDPKKDFRESMIEMIEENNIRASKDLEDLLACYLTLNPKEYHDLIIHVFEQIWLQLTKTK”, the “soluble on expression in E. coli” value was “soluble”.

In the case of “MGSDKIHHHHHHMFEIKVSQEIKNACPVFAGAAVYAAVKNTAYCDGLWKEINTFTEDLTTTTQMADIKLQPVIAATREAYKRCGKDPGRYRPSAEALRRRLMRGIPLYQIDTLVDLINLVSLRTGHSIGGFDADKIQGNHLELGIGKAEEPFEGIGRGILNIEGLPVYRDSFGGIGTPTSDHERTKMDIGTTHILAIVNGYNGKEGLKEAAEMIQSLLKDYAGSDGGELIYFE”, the “soluble on expression in E. coli” value is reported as “not soluble”.

As for “MSLHQILVVDDDAVSQQFLVMVLQRLGYANVVVASDGLDALIQLDAGDRRFDVIFCDLDMPRMDGIEFVRHLGERAFQGKLLISSGFDERVLESVAELARMYDLWLAGVLPKPINHQALQRLINQAPPASRHPTHAVAPPTEDELRAAIGKGEIRPFLQPQVLLADGRIRSAEVLARWQHPRLGLIGPQQFIQLAEHSSLITELTLQLLKQAAASMDRLPSETPMEMSLNLSVASLNEIALVSQFERILNDCGFPFSRLTVEVTETGLMANPTRALELLTRLRLKGARLAIDDFGTGFASMDRLSRIPFTELKIDKSFVIDAARNPTNLSIVRASAELGRQLGLVVVAEGVATESEWRLCQQLDVEIVQGSFISPPVDAESFRRWLLKHRGEGHHHHHH”, the “soluble on expression in E. coli” value is “soluble”.

Regarding “MGSDKIHHHHHHMTKNNEAGWNLDNSYATLPHSFYTEIPPTPVSSPELVKLNHSLAISLGFNPEELKKETEIAIFAGNALPEGAHPLAQAYAGHQFGHFNMLGDGRALLIGEQITPSGKRFDIQLKGSGPTPYSRRGDGRAALGPMLREYIISEAMYALDIPTTRSLAVVTTGEPTYRETKLPGAILTRVASSHIRVGTFQYAAARGSIEDLQSLADYTIKRHYPEIEDPENRYTALLQEVIKKQASLIAKWQLVGFIHGVMNTDNITISGETIDYGPCAFMDHYDQGTVFSSIDTQGRYAYGNQPYMAAWDLARLAESLIPILHEDEEEALKIAQDEISKFSVQYENLWFLGMKKKLGLFSNEEQDHSLIEQLLKMMEKYKADYTNTFRSLTLNTLENTPLFDSSEFKEWYKLWQSRLERQDESKENAYEMMKNNNPSIIPRNHRVEEALEAAVTNGDYSVMEKLLEALANPYAYATDQEEYCVTPAPTNRPYRTFCGT”, the “soluble on expression in E. coli” value was “not soluble”.

Turning to “MMEGVRRAVAKFLRGGGVYEKAVDAFVKDLQRELIKADVNVKLVLNVTRRIKERALKEEPPPGVTRRDWMIKIVYEELVKLFGGDQEPQVDPPKTPWIVLLVGVQGSGKTTTAGKLAYYYVRRGYKVGLVSSDTHRPGAYEQLKRLAEEAGAMFYGEREGDPAEIARRGLEDLLSRGAEIVIVDTAGRHGHGEEARLLDEMKAIASKVRPDEVALVIDASIGQKAMGLAERFHKSTPIGSIIVTKMDGTARGGGALTAAAVTGARIKFIGTGETLGELEPFAPRRFVARILGMGDLESLLERIKSLEEAGELDRAAEDVLKGRITMRTIYRQLRAMRKLGPLGKVLQMLPGASMLASIDEGALKLGEEKMKRWMAIIESMTYEELDRPEIIDKRRMRRIAIGSGTSVDDVRELLVYYKNLKTMMKKLKRDKRLLRRLGMEL”, the “soluble on expression in E. coli” value is recorded as “soluble”.

Turning to “MVMEVDEPAVAATTSQNQPQEHANDFDMDTSEGPIENDETFEPVDQINWKFNQVKGNIDADVHTEADVISCVEFSHDGEYLATGDKGGRVVIFQRDQSGKYVKGVRSREYNVYSTFQSHEPEFDYLKSLEIDEKINQIRWLKKKNAANFILSTNDKTIKLWKISERERKIGDDAWNLPRTNRINTSSFRGRLQIPSIVPMELIVEASPRRVYGNAHTYHVNSISVNSDQETFLSADDLRVNLWNLEITNESFNIVDIKPANMEELTEVITAAEFHPTQCNWFVYSSSKGSIRLCDMRDRALCDAYAKIFEEPEDPQSRSFFSEIIASVSDVKFSHNGRYLLTRDYLTVKVWDLNMESQPVETYPVHNYLRTKLCALYENDSIFDKFECDWSGDDKHILTGSYHNLFRSYARGNNQDAKTWEARPQEPHSQLRSRFVVPSAKRKRNNLSSSGETTEEDLSSDQLQFDRKILHTAWHPKDNIIALAATNNLYIFSDV”, the “soluble on expression in E. coli” value was “not soluble”.
